Laboratory results published in US12630600B2 (MEDIMMUNE LIMITED, priority 2022, dated 2026).
Starred links: 1 amine or outer side, 2 acyl side, 3 side chain; linkers in the order of their positions; H or OH if unused. Non-standard residues stand in square brackets, D forms with d. Groups on a side chain read outwards from the residue. No end group written: not given here. *: point of attachment. C20 diacid = O=C(O)CCCCCCCCCCCCCCCCCCC(=O)*; C18 diacid = O=C(O)CCCCCCCCCCCCCCCCC(=O)*; γGlu = O=C(O)[C@H](CCC(=O)[*:2])N[*:1]; αMeF = C[C@](N)(Cc1ccccc1)C(=O)O; AEEA = NCCOCCOCC(=O)O; Aib = CC(C)(N)C(=O)O

How the values were obtained:
human GLP-1 receptor = human GLP-1 receptor (human, UniProt P43220); assay: cell-based or functional assay
human glucagon receptor = human glucagon receptor (human, UniProt P47871); assay: cell-based or functional assay

Binder	cAMP production, hGLP-1R EC50 (pM) (human GLP-1 receptor)	cAMP production, hGluc-R EC50 (pM) (human glucagon receptor)
HSQGS[αMeF]TSDVSK[αMeF]LDSK([γGlu-C18 diacid])AAQDFVQWIANT-NH2 (N-terminus assumed; SMILES CC[C@H](C)[C@H](NC(=O)[C@H](Cc1c[nH]c2ccccc12)NC(=O)[C@H](CCC(N)=O)NC(=O)[C@@H](NC(=O)[C@H](Cc1ccccc1)NC(=O)[C@H](CC(=O)O)NC(=O)[C@H](CCC(N)=O)NC(=O)[C@H](C)NC(=O)[C@H](C)NC(=O)[C@H](CCCCNC(=O)CC[C@H](NC(=O)CCCCCCCCCCCCCCCCC(=O)O)C(=O)O)NC(=O)[C@H](CO)NC(=O)[C@H](CC(=O)O)NC(=O)[C@H](CC(C)C)NC(=O)[C@](C)(Cc1ccccc1)NC(=O)[C@H](CCCCN)NC(=O)[C@H](CO)NC(=O)[C@@H](NC(=O)[C@H](CC(=O)O)NC(=O)[C@H](CO)NC(=O)[C@@H](NC(=O)[C@](C)(Cc1ccccc1)NC(=O)[C@H](CO)NC(=O)CNC(=O)[C@H](CCC(N)=O)NC(=O)[C@H](CO)NC(=O)[C@@H](N)Cc1c[nH]cn1)[C@@H](C)O)C(C)C)C(C)C)C(=O)N[C@@H](C)C(=O)N[C@@H](CC(N)=O)C(=O)N[C@H](C(N)=O)[C@@H](C)O) [Peptide 3]	69	149
H[Aib]QGTFTSDVSK[αMeF]LDSK([γGlu-γGlu-AEEA-AEEA-γGlu-γGlu-C18 diacid])RAQDFVRWLLE[Aib]G-OH (N-terminus assumed; SMILES CC(C)C[C@H](NC(=O)[C@H](Cc1c[nH]c2ccccc12)NC(=O)[C@H](CCCNC(=N)N)NC(=O)[C@@H](NC(=O)[C@H](Cc1ccccc1)NC(=O)[C@H](CC(=O)O)NC(=O)[C@H](CCC(N)=O)NC(=O)[C@H](C)NC(=O)[C@H](CCCNC(=N)N)NC(=O)[C@H](CCCCNC(=O)CC[C@H](NC(=O)CC[C@H](NC(=O)COCCOCCNC(=O)COCCOCCNC(=O)CC[C@H](NC(=O)CC[C@H](NC(=O)CCCCCCCCCCCCCCCCC(=O)O)C(=O)O)C(=O)O)C(=O)O)C(=O)O)NC(=O)[C@H](CO)NC(=O)[C@H](CC(=O)O)NC(=O)[C@H](CC(C)C)NC(=O)[C@](C)(Cc1ccccc1)NC(=O)[C@H](CCCCN)NC(=O)[C@H](CO)NC(=O)[C@@H](NC(=O)[C@H](CC(=O)O)NC(=O)[C@H](CO)NC(=O)[C@@H](NC(=O)[C@H](Cc1ccccc1)NC(=O)[C@@H](NC(=O)CNC(=O)[C@H](CCC(N)=O)NC(=O)C(C)(C)NC(=O)[C@@H](N)Cc1c[nH]cn1)[C@@H](C)O)[C@@H](C)O)C(C)C)C(C)C)C(=O)N[C@@H](CC(C)C)C(=O)N[C@@H](CCC(=O)O)C(=O)NC(C)(C)C(=O)NCC(=O)O) [Peptide 138]	104	184
H[Aib]QGTFTSDVSK[αMeF]LDSK([AEEA-AEEA-γGlu-C18 diacid])RAQDFVAWLLE[Aib]G-OH (N-terminus assumed; SMILES CC(C)C[C@H](NC(=O)[C@H](Cc1c[nH]c2ccccc12)NC(=O)[C@H](C)NC(=O)[C@@H](NC(=O)[C@H](Cc1ccccc1)NC(=O)[C@H](CC(=O)O)NC(=O)[C@H](CCC(N)=O)NC(=O)[C@H](C)NC(=O)[C@H](CCCNC(=N)N)NC(=O)[C@H](CCCCNC(=O)COCCOCCNC(=O)COCCOCCNC(=O)CC[C@H](NC(=O)CCCCCCCCCCCCCCCCC(=O)O)C(=O)O)NC(=O)[C@H](CO)NC(=O)[C@H](CC(=O)O)NC(=O)[C@H](CC(C)C)NC(=O)[C@](C)(Cc1ccccc1)NC(=O)[C@H](CCCCN)NC(=O)[C@H](CO)NC(=O)[C@@H](NC(=O)[C@H](CC(=O)O)NC(=O)[C@H](CO)NC(=O)[C@@H](NC(=O)[C@H](Cc1ccccc1)NC(=O)[C@@H](NC(=O)CNC(=O)[C@H](CCC(N)=O)NC(=O)C(C)(C)NC(=O)[C@@H](N)Cc1c[nH]cn1)[C@@H](C)O)[C@@H](C)O)C(C)C)C(C)C)C(=O)N[C@@H](CC(C)C)C(=O)N[C@@H](CCC(=O)O)C(=O)NC(C)(C)C(=O)NCC(=O)O) [Peptide 141]	264	392
H[Aib]QGTFTSDVSK[αMeF]LDSK([AEEA-AEEA-γGlu-C18 diacid])RAQDFVQWLL[Aib]T-OH (N-terminus assumed; SMILES CC(C)C[C@H](NC(=O)[C@H](Cc1c[nH]c2ccccc12)NC(=O)[C@H](CCC(N)=O)NC(=O)[C@@H](NC(=O)[C@H](Cc1ccccc1)NC(=O)[C@H](CC(=O)O)NC(=O)[C@H](CCC(N)=O)NC(=O)[C@H](C)NC(=O)[C@H](CCCNC(=N)N)NC(=O)[C@H](CCCCNC(=O)COCCOCCNC(=O)COCCOCCNC(=O)CC[C@H](NC(=O)CCCCCCCCCCCCCCCCC(=O)O)C(=O)O)NC(=O)[C@H](CO)NC(=O)[C@H](CC(=O)O)NC(=O)[C@H](CC(C)C)NC(=O)[C@](C)(Cc1ccccc1)NC(=O)[C@H](CCCCN)NC(=O)[C@H](CO)NC(=O)[C@@H](NC(=O)[C@H](CC(=O)O)NC(=O)[C@H](CO)NC(=O)[C@@H](NC(=O)[C@H](Cc1ccccc1)NC(=O)[C@@H](NC(=O)CNC(=O)[C@H](CCC(N)=O)NC(=O)C(C)(C)NC(=O)[C@@H](N)Cc1c[nH]cn1)[C@@H](C)O)[C@@H](C)O)C(C)C)C(C)C)C(=O)N[C@@H](CC(C)C)C(=O)NC(C)(C)C(=O)N[C@H](C(=O)O)[C@@H](C)O) [Peptide 40]	29.9	123

Other lines, results leading:

cAMP production, hGLP-1R EC50 (pM) (human GLP-1 receptor)	cAMP production, hGluc-R EC50 (pM) (human glucagon receptor)	Binder
45.2	509	H[Aib]QGTFTSDVSK[αMeF]LDSK([γGlu-γGlu-AEEA-AEEA-γGlu-γGlu-C18 diacid])RARDFVRWLLE[Aib]G-OH (N-terminus assumed; SMILES CC(C)C[C@H](NC(=O)[C@H](Cc1c[nH]c2ccccc12)NC(=O)[C@H](CCCNC(=N)N)NC(=O)[C@@H](NC(=O)[C@H](Cc1ccccc1)NC(=O)[C@H](CC(=O)O)NC(=O)[C@H](CCCNC(=N)N)NC(=O)[C@H](C)NC(=O)[C@H](CCCNC(=N)N)NC(=O)[C@H](CCCCNC(=O)CC[C@H](NC(=O)CC[C@H](NC(=O)COCCOCCNC(=O)COCCOCCNC(=O)CC[C@H](NC(=O)CC[C@H](NC(=O)CCCCCCCCCCCCCCCCC(=O)O)C(=O)O)C(=O)O)C(=O)O)C(=O)O)NC(=O)[C@H](CO)NC(=O)[C@H](CC(=O)O)NC(=O)[C@H](CC(C)C)NC(=O)[C@](C)(Cc1ccccc1)NC(=O)[C@H](CCCCN)NC(=O)[C@H](CO)NC(=O)[C@@H](NC(=O)[C@H](CC(=O)O)NC(=O)[C@H](CO)NC(=O)[C@@H](NC(=O)[C@H](Cc1ccccc1)NC(=O)[C@@H](NC(=O)CNC(=O)[C@H](CCC(N)=O)NC(=O)C(C)(C)NC(=O)[C@@H](N)Cc1c[nH]cn1)[C@@H](C)O)[C@@H](C)O)C(C)C)C(C)C)C(=O)N[C@@H](CC(C)C)C(=O)N[C@@H](CCC(=O)O)C(=O)NC(C)(C)C(=O)NCC(=O)O) [Peptide 136]
143	268	H[Aib]QGTFTSDVSK[αMeF]LDSK([γGlu-γGlu-AEEA-AEEA-γGlu-γGlu-C18 diacid])RAQDFVRWLLEG[Aib]-OH (N-terminus assumed; SMILES CC(C)C[C@H](NC(=O)[C@H](CC(C)C)NC(=O)[C@H](Cc1c[nH]c2ccccc12)NC(=O)[C@H](CCCNC(=N)N)NC(=O)[C@@H](NC(=O)[C@H](Cc1ccccc1)NC(=O)[C@H](CC(=O)O)NC(=O)[C@H](CCC(N)=O)NC(=O)[C@H](C)NC(=O)[C@H](CCCNC(=N)N)NC(=O)[C@H](CCCCNC(=O)CC[C@H](NC(=O)CC[C@H](NC(=O)COCCOCCNC(=O)COCCOCCNC(=O)CC[C@H](NC(=O)CC[C@H](NC(=O)CCCCCCCCCCCCCCCCC(=O)O)C(=O)O)C(=O)O)C(=O)O)C(=O)O)NC(=O)[C@H](CO)NC(=O)[C@H](CC(=O)O)NC(=O)[C@H](CC(C)C)NC(=O)[C@](C)(Cc1ccccc1)NC(=O)[C@H](CCCCN)NC(=O)[C@H](CO)NC(=O)[C@@H](NC(=O)[C@H](CC(=O)O)NC(=O)[C@H](CO)NC(=O)[C@@H](NC(=O)[C@H](Cc1ccccc1)NC(=O)[C@@H](NC(=O)CNC(=O)[C@H](CCC(N)=O)NC(=O)C(C)(C)NC(=O)[C@@H](N)Cc1c[nH]cn1)[C@@H](C)O)[C@@H](C)O)C(C)C)C(C)C)C(=O)N[C@@H](CCC(=O)O)C(=O)NCC(=O)NC(C)(C)C(=O)O) [Peptide 137]
630	984	H[Aib]QGTFTSDVSK[αMeF]LDSK([γGlu-γGlu-AEEA-AEEA-γGlu-γGlu-C20 diacid])RAQDFVRWLLE[Aib]G-OH [Peptide 139]
665	8190	H[Aib]QGTFTSDVSK[αMeF]LDSK([AEEA-AEEA-γGlu-C18 diacid])RAQDFVQ[Aib]LVAT-OH (N-terminus assumed; SMILES CC(C)C[C@H](NC(=O)C(C)(C)NC(=O)[C@H](CCC(N)=O)NC(=O)[C@@H](NC(=O)[C@H](Cc1ccccc1)NC(=O)[C@H](CC(=O)O)NC(=O)[C@H](CCC(N)=O)NC(=O)[C@H](C)NC(=O)[C@H](CCCNC(=N)N)NC(=O)[C@H](CCCCNC(=O)COCCOCCNC(=O)COCCOCCNC(=O)CC[C@H](NC(=O)CCCCCCCCCCCCCCCCC(=O)O)C(=O)O)NC(=O)[C@H](CO)NC(=O)[C@H](CC(=O)O)NC(=O)[C@H](CC(C)C)NC(=O)[C@](C)(Cc1ccccc1)NC(=O)[C@H](CCCCN)NC(=O)[C@H](CO)NC(=O)[C@@H](NC(=O)[C@H](CC(=O)O)NC(=O)[C@H](CO)NC(=O)[C@@H](NC(=O)[C@H](Cc1ccccc1)NC(=O)[C@@H](NC(=O)CNC(=O)[C@H](CCC(N)=O)NC(=O)C(C)(C)NC(=O)[C@@H](N)Cc1c[nH]cn1)[C@@H](C)O)[C@@H](C)O)C(C)C)C(C)C)C(=O)N[C@H](C(=O)N[C@@H](C)C(=O)N[C@H](C(=O)O)[C@@H](C)O)C(C)C) [Peptide 42]
